Series [1] has as its target MS-(B1-L88N)8 L88N (Mycobacterium smegmatis) (UniProt A0QR29). Particulars: four 5' 2'-O-methyl-uracil on SEQ 19; 3' Cholesteryl-TEG on SEQ 20; mean S.D. of current levels; helicase translocation, +140 mV; unit assumed.
Series [2] deals with MspA NNN-RRK pore MS-(B1)8 (Mycobacterium smegmatis) (UniProt A0QR29). Particulars: four 5' 2'-O-methyl-uracil on SEQ 19; 3' Cholesteryl-TEG on SEQ 20; mean S.D. of current levels; helicase translocation, +140 mV; unit assumed.

“NNNNTTTTTTTTTTTTTTTTTTTTTTTTTTTTTTTTTTTTTTTTTTTTTTTTTTGGTTGTTTCTGTTGGTGCTGATATTGCTTTTGATGCCGACCCTAAATTTTTTGCCTGTTTGGTTCGCTTTGAGTCTTCTTCGGTTCCGACTACCCTCCCGACTGCCTATGATGTTTATCCTTTGAATGGTCGCCATGATGGTGGTTATTATACCGTCAAGGACTGTGTGACTATTGACGTCCTTCCCCGTACGCCGGGCAATAACGTTTATGTTGGTTTCATGGTTTGGTCTAACTTTACCGCTACTAAATGCCGCGGATTGGTTTCGCTGAATCAGGTTATTAAAGAGATTATTTGTCTCCAGCCACTTAAGTGAGGTGATTTATGTTTGGTGCTATTGCTGGCGGTATTGCTTCTGCTCTTGCTGGTGGCGCCATGTCTAAATTGTTTGGAGGCGGTC / GCAATATCAGCACCAACAGAAACAACCTTTTTTTTTTTTTTTTTTTTTTTTTTTTTT”: the activity in series [1] came to 1.79 pA; in series [2], 2.3 pA.
